Results: patent publication US20110142812A1 (STC UNM, published 2011)

Columns and labels:
[1] = target: T1, mouse FcγRI on macrophages (mouse, UniProt P26151 25-404); experiment: two-color flow cytometry on mouse peritoneal macrophages (FcγRIIb-/-), FITC-2C10 detection
T1 construct: whole, on cells; The receptor is assigned by using macrophages from knockout mice; Other receptors may be present on these cells; also called FcγRI on mouse macrophages (from FcγRIIb-/- mice)
T1 sequence (looked up): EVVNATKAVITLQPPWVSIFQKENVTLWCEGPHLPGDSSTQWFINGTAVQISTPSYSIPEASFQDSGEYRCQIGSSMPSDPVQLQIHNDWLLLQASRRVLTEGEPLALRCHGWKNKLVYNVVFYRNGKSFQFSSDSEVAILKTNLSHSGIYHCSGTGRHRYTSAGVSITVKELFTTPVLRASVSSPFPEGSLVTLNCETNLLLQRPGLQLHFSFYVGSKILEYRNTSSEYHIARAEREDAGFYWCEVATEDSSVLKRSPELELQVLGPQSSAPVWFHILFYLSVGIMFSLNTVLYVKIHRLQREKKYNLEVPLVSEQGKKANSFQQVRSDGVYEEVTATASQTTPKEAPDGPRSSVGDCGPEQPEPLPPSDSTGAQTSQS

human FcγRI = target: T2, human FcγRI (human, UniProt P12314 16-292, limits assumed); experiment: surface plasmon resonance, human FcγR
T2 construct: also called CD64
T2 sequence (P12314 16-292 limits assumed): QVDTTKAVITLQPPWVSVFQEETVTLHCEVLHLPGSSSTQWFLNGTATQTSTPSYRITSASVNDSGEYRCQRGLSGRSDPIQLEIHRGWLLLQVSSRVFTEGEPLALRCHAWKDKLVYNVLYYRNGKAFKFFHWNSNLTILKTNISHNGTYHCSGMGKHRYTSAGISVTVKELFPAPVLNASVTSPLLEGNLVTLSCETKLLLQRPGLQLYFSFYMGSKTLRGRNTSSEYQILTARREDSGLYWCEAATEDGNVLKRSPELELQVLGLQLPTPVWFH

B1: Y175L CRP (recombinant mutant C-reactive protein in which tyrosine 175 is replaced by leucine) (ligand)
chain: QTDMSRKAFVFPKESDTSYVSLKAPLTKPLKAFTVCLHFYTELSSTRGYSIFSYATKRQDNEILIFWSKDIGYSFTVGGSEILFEVPEVTVAPVHICTSWESASGIVEFWVDGKPRVRKSLKKGYTVGAEASIILGQEQDSFGGNFEGSQSLVGDIGNVNMWDFVLSPDEINTILLGGPFSPNVLNWRALKYEVQGEVFTKPQLWP
notes: also called CRP mutant Y175L; recombinant mutant CRP (Y175L)
- binding result [1]: binds
- binding result (human FcγRI): binds
